Assay results as given in patent US12692310B2, “ASIC1 channel antagonist antibody” (ShanghaiTech University, priority 2019, dated 2026).

System: MCAO-induced ischemic stroke model mice
Experiment: Middle cerebral artery occlusion (MCAO)-induced ischemic stroke model
Type: in vivo, mouse
Conditions: 4 μL i.c.v. 3 h after ischemia; 100 nM PcTx1 or 3.0 μg/μL ASC06-IgG1; 24 h after injection
Procedure: The Middle Cerebral Artery Occlusion (MCAO) Model. Animal care and the experimental protocols were approved by the Animal Ethics Committee of Shanghai Jiao Tong University School of Medicine, Shanghai, China. A transient ischemic stroke in the left brain hemisphere was established in male mice (C57 BL/6, 20-25 g) using middle cerebral artery occlusion (MCAO) for 1 h before reperfusion. Three hours after ischemia, a total of 4 μL of vehicle solution (PBS) in the absence or presence of neuroprotective agents) 100 nM PcTx1 or 3.0 μg/μL endotoxin-free ASC06-IgG1 ([…])) was administered by an intracerebroventricular (i.c.v.) injection on the contralateral side of the brain hemisphere. An irrelevant endotoxin-free antibody (3.0 μg/μL, […]) was used as isotype control. […] Mice were sacrificed 24 h after the i.c.v. injection. […] The infarct area was calculated by subtracting the normal area stained with TTC in the ischemic hemisphere from that of the nonischemic hemisphere. The infarct volume was calculated by summing infarction areas of all sections and multiplying by slice thickness.
To determine if the protective effect of antibody ASC06-IgG1 in vitro could be extended to pathologies in vivo, the middle cerebral artery occlusion (MCAO) model was used to study the antibody's neuroprotective effect. […] The infarct volume of the cortex and striatum were calculated 24 hours after the injection. […]

B1: ASC06-IgG1: ASC06 antibody converted into a full length IgG1 form (antibody, V domains shown)
VH: QVQLQQSGGGLVQPGGSLRLSCAASGFTFSSYAMSWVRQAPGKGLEWVSAISGSGGSTYYADSVKGRFTISRDNSKNTLYLQMNSLRAEDTAVYYCAKDSFYGYSKGDWGQGTLVTVSS
VL: QSALTQPASVSGSPGQSITISCTGTSSDVGAYNYVSWYQQQPGKAPKLMIYGVSNRPSGVSNRFSGSKSGNAASLTISGLQAEDEADYYCSSYTSSSTYVFGTGTKLTVLG
- infarct volume (compared with the contralateral brain region): about 23%
